The values that follow are results of earlier work, collected in PMC5686428.

The series has as its target HSV-1 glycoprotein D (soluble gD) (Herpes simplex virus type 1) (UniProt Q69091). In words: not stated (cited). The note with it: SYBR Green assay: 1-200 nM protein, DApt (dissolved in PBS, heated 95 C 3 min, cooled on ice), 30 min, read at 520 nm; assay buffer, pH and temperature not ….
Sequence of UniProt Q69091 (Q69091 26-331): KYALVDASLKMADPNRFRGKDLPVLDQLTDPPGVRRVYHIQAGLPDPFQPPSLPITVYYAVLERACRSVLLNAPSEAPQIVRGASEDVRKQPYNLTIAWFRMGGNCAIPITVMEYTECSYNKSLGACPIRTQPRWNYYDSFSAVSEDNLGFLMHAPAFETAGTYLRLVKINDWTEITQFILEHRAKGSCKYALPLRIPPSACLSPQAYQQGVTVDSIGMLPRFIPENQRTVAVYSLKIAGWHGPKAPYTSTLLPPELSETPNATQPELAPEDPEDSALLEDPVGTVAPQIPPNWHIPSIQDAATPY

Regarding “GGGCACGAGAGAGGUCGUCCCCAGGGGAGAACUCGUGCUCCUGG [mini-1 RNA aptamer]”, the Kd (in general, the equilibrium constant for the complex coming apart) was 4 nM.
